Laboratory results from the supplement of paper PMC9732359.
± gives the uncertainty stated by the source.

Experiment: protein stability index of a GFP-peptide fusion (yeast GPS) (PSI 1-4); higher = more stable; sorted into four equal gates, so the index is relative within each strain
Method in brief: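 Tiled 17-residue peptides from yeast proteins were fused downstream of GFP on a plasmid that also expresses Cherry, and the pooled library was carried in yeast. Mid-log cultures grown in leucine-free medium were sorted into four equal gates by GFP/Cherry fluorescence ratio. Plasmids from each gate were PCR-amplified and Illumina-sequenced, and reads were assigned to strains by barcodes. Each peptide's protein stability index is the sum, over gates, of the gate's read frequency multiplied by its gate number.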

| Sequence | protein stability index (doa10∆) | protein stability index (pdr5∆) | protein stability index (san1∆) | protein stability index (ubr1∆) |
| --- | --- | --- | --- | --- |
| VKADVEKSLLPKIETNV [ISW2] | 3.03 ± 0.086 | 3.18 ± 0.074 | 3.11 ± 0.062 | 2.92 ± 0.088 |
| KDNGMLIIDGQIIFGVV [RPO21] | 1.95 ± 0.12 | 1.79 ± 0.076 | 1.61 ± 0.21 | 2.73 ± 0.12 |
| VSKSEPKFFLGEENRVR [QCR2] | 3.42 ± 0.097 | 3.18 ± 0.077 | 3.13 ± 0.053 | 3.26 ± 0.048 |
| KSLPLLITVMEKSPDPT [YCS4] | 1.91 ± 0.045 | 1.87 ± 0.043 | 1.92 ± 0.062 | 1.97 ± 0.034 |
| IVSFIVNCFHEDTELYQ [YJL039C/NUP192] | 1.62 ± 0.051 | 1.71 ± 0.051 | 2.22 ± 0.055 | 2.46 ± 0.036 |
| QVVTTVASQSPHATATE [SNF6] | 2.56 ± 0.11 | 2.88 ± 0.079 | 2.6 ± 0.096 | 2.79 ± 0.047 |
| FLDSMAQKYASIVGVDL [FAS2] | 1.81 ± 0.051 | 2.29 ± 0.048 | 1.96 ± 0.057 | 2.61 ± 0.035 |
| MPYTINELLEMVGLASG [BRR2] | 2.56 ± 0.049 | 2.31 ± 0.057 | 2.58 ± 0.052 | 2.52 ± 0.031 |
| VNSIALFVGTDRQLHEI [RPN14] | 2.43 ± 0.079 | 2.46 ± 0.065 | 2.25 ± 0.067 | 2.67 ± 0.074 |
| TEYGRKYNVNISALTQT [PRP8] | 2.07 ± 0.14 | 2.53 ± 0.093 | 2.94 ± 0.14 | 2.5 ± 0.047 |
| SYRLLPQINILQPIKGE [RPC40] | 2.04 ± 0.094 | 2.1 ± 0.087 | 1.74 ± 0.067 | 2.03 ± 0.064 |
| DLISEILKWVQWSRIVL [MED1] | 3.48 ± 0.12 | 3.33 ± 0.11 | 3.08 ± 0.064 | 3.54 ± 0.061 |
| TIFSPEGRLYQVEYALE [PRE9] | 3.13 ± 0.079 | 3.32 ± 0.088 | 3.14 ± 0.11 | 3.12 ± 0.051 |
| KILNLEKPLILADYIVE [NUT1] | 1.58 ± 0.1 | 1.56 ± 0.061 | 1.22 ± 0.18 | 1.3 ± 0.07 |
| DQEIVIQQLHSVLNPFL [ISW2] | 2.3 ± 0.042 | 2.09 ± 0.042 | 1.98 ± 0.056 | 2.26 ± 0.032 |
| LKTLTHKQIHTTIFVKS [POP7] | 1.94 ± 0.036 | 2.07 ± 0.038 | 1.77 ± 0.063 | 1.82 ± 0.029 |
| SKLLYDDVTCDKLSVSE [SIN4] | 3.08 ± 0.07 | 3.02 ± 0.053 | 2.86 ± 0.051 | 3.23 ± 0.043 |
| QWLNNALKRSYGIFGEG [POP8] | 2.8 ± 0.08 | 3.02 ± 0.059 | 3.08 ± 0.07 | 3.15 ± 0.071 |
| RFRKLTSQEINDRLEAL [PRE8] | 3.07 ± 0.14 | 3.01 ± 0.089 | 2.52 ± 0.24 | 2.91 ± 0.11 |
| VGKDTPFTIYDGEAVAK [PRE5] | 2.7 ± 0.075 | 3 ± 0.064 | 3.14 ± 0.088 | 3.15 ± 0.051 |
| DGFDPRGNIKVMFATNR [RPT1] | 3.25 ± 0.17 | 3.48 ± 0.16 | 3.26 ± 0.091 | 3.24 ± 0.14 |
| GVFDPASYSKYLIDHIK [RPL22B] | 3.12 ± 0.051 | 3.1 ± 0.069 | 2.92 ± 0.06 | 2.9 ± 0.043 |
| TGVMIGIDLAYNMYDAY [PRP8] | 2.5 ± 0.064 | 2.69 ± 0.053 | 2.82 ± 0.066 | 2.84 ± 0.051 |
| KARTNLHQHVVLKCLKS [RPC34] | 2.91 ± 0.19 | 2.64 ± 0.16 | 2.33 ± 0.14 | 2.23 ± 0.23 |
| KDEPVQNDILQESFINT [FAS2] | 2.94 ± 0.089 | 3.14 ± 0.12 | 3.02 ± 0.052 | 3.21 ± 0.082 |
| RMPMDFKGVIVKIVDKD [PRE1] | 2.25 ± 0.17 | 3.11 ± 0.18 | 3.19 ± 0.22 | 2.37 ± 0.056 |
| QSLLSLYFEIIHGVLKN [FAS2] | 2.37 ± 0.12 | 1.84 ± 0.076 | 2.14 ± 0.17 | 1.51 ± 0.045 |

| Sequence | protein stability index (doa10∆) | protein stability index (pdr5∆) | protein stability index (san1∆) | protein stability index (ubr1∆) |
| --- | --- | --- | --- | --- |
| YFKLSITSFDQDVDDAH [POP8] | 1.78 ± 0.05 | 1.95 ± 0.075 | 1.78 ± 0.095 | 2.25 ± 0.055 |
| LNAANYNIDANVIDTQR [ECM29] |  | 2.37 ± 0.15 | 3.18 ± 0.12 | 2.85 ± 0.12 |
| VKEIVLPLFYDLLNAAS [IRR1] | 2.36 ± 0.045 | 2.48 ± 0.052 | 2.78 ± 0.036 | 2.69 ± 0.049 |
| KSDDDDHTVDEIDHVEY [SRB8] | 2.45 ± 0.069 | 2.46 ± 0.08 | 2.98 ± 0.1 | 2.91 ± 0.048 |
| DLNTRISVIETIRVVTE [RPN5] | 1.64 ± 0.15 | 2.04 ± 0.12 |  | 2.97 ± 0.15 |
| AVYFADTSGLKISNSEF [SIN4] | 2.96 ± 0.072 | 3.32 ± 0.08 | 3.1 ± 0.049 | 3.18 ± 0.063 |
| LIAEETNNKKLLEKANN [SMC3] | 2.41 ± 0.055 | 2.68 ± 0.075 | 2.38 ± 0.073 | 3.32 ± 0.063 |
| TPANTNNSTSNANTVFS [SWI1] | 2.5 ± 0.057 | 2.75 ± 0.047 | 2.66 ± 0.04 | 2.931 ± 0.028 |
| SDEKKDGDASKPAFSFG [YJL041W/NSP1] | 3.24 ± 0.092 | 2.64 ± 0.23 | 3.25 ± 0.056 | 3.23 ± 0.1 |
| SQSACREMALCRELHNK [SSN3] | 2.42 ± 0.089 | 2.38 ± 0.073 | 2.55 ± 0.11 | 2.8 ± 0.067 |
| NELLKCKDDVQLQKILE [MTW1] | 2.97 ± 0.057 | 3.04 ± 0.051 | 3.05 ± 0.035 | 3.04 ± 0.037 |
| NGLGTSHINTNVGDNNS [ARP7] | 3.13 ± 0.12 | 2.77 ± 0.099 | 2.74 ± 0.082 | 3.28 ± 0.11 |
| LGEEHPLQVARCTKIIK [RPT1] | 2.18 ± 0.082 | 2.78 ± 0.073 | 2.75 ± 0.082 | 2.39 ± 0.085 |
| HITSVPISAVLRGCKFL [GRR1] | 1.77 ± 0.044 | 1.66 ± 0.048 | 1.86 ± 0.064 | 2.05 ± 0.037 |
| VDEELGPSIYKTDPAGY [SCL1] | 3.12 ± 0.084 | 3.35 ± 0.074 | 3.29 ± 0.072 | 3.27 ± 0.083 |
| EQVAEEAAAAEEGEEEE [RPS0B] |  | 3.33 ± 0.26 |  |  |
| YVRAKFLDYTTDNVSMY [PRP8] | 2.82 ± 0.059 | 2.73 ± 0.064 | 2.54 ± 0.063 | 2.82 ± 0.061 |
| LPLLYNFNPDNGFAPIS [FAS1] | 2.03 ± 0.12 | 2.63 ± 0.054 | 2.47 ± 0.093 | 2.72 ± 0.068 |
| EKIAAGYMQKPVYATIG [PRP28] | 2.87 ± 0.19 | 2.67 ± 0.076 | 2.67 ± 0.15 | 2.67 ± 0.094 |
| NFEKPKNSSQLLNEWSH [RPN5] | 2.83 ± 0.087 | 3.11 ± 0.078 | 2.88 ± 0.063 | 3.12 ± 0.087 |
| PKWERVFLFDIEKVDRE [RRI2] | 2.4 ± 0.1 | 2.33 ± 0.056 | 2.1 ± 0.1 | 2.57 ± 0.073 |
| KLILHAIHIFESYYNWK [YML103C/NUP188] | 1.57 ± 0.082 | 1.45 ± 0.07 | 1.58 ± 0.081 | 1.82 ± 0.056 |
| PSIPLVIIRRLKTRDWI [POP1] | 2.72 ± 0.1 | 1.69 ± 0.073 | 2.86 ± 0.12 | 2.53 ± 0.081 |
| FTIQSFVSSLSNTSTLK [BRR2] | 1.83 ± 0.05 | 1.97 ± 0.041 | 2.01 ± 0.055 | 2.24 ± 0.034 |
| TRQFEGRSNEIVKTTTK [PRP8] | 3.14 ± 0.058 | 3.12 ± 0.07 | 2.89 ± 0.055 | 3 ± 0.044 |
| DEKDYLTNQQPKNLSTP [CSE2] | 3.04 ± 0.083 | 2.87 ± 0.081 | 3.21 ± 0.059 | 3.27 ± 0.069 |
